Target: T1, C-terminally 3x FLAG-tagged Mtrm (Drosophila melanogaster, UniProt Q23973 1-217)
T1 construct: Matrimony (Mtrm), Drosophila melanogaster, 217 amino acids; Phosphorylation detected by MS on T40, S48, S52, S124 and S137; also called Mtrm-FLAG(3x); mtrm-Flag(3x); source: UASP-mtrm-Flag(3x) expressed in ovaries under the nanos-GAL4 driver in a wild-type background, in ovary extract; not shown: 3x FLAG, C-terminal, kept
T1 sequence (looked up): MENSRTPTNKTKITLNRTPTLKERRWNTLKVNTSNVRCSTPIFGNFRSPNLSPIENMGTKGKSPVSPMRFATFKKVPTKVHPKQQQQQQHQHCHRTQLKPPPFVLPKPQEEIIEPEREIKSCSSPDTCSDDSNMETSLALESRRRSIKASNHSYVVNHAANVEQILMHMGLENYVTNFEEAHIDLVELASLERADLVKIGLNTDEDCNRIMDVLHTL
Assay: affinity purification with mass spectrometry; anti-FLAG beads, ovary extracts expressing Mtrm-3x FLAG, eluted with 3x FLAG peptide; MudPIT; three independent purifications against five control FLAG immunoprecipitations from w1118; ratio of NSAF values
Conditions: partners not purified

- stoichiometry N: 0.96 ± 0.11
B1: Polo kinase (Polo) (enzyme, UniProt P52304 1-576, looked up)
chain: MAAKPEDKSTDIPDRLVDINQRKTYKRMRFFGKGGFAKCYEIIDVETDDVFAGKIVSKKLMIKHNQKEKTAQEITIHRSLNHPNIVKFHNYFEDSQNIYIVLELCKKRSMMELHKRRKSITEFECRYYIYQIIQGVKYLHDNRIIHRDLKLGNLFLNDLLHVKIGDFGLATRIEYEGERKKTLCGTPNYIAPEILTKKGHSFEVDIWSIGCVMYTLLVGQPPFETKTLKDTYSKIKKCEYRVPSYLRKPAADMVIAMLQPNPESRPAIGQLLNFEFLKGSKVPMFLPSSCLTMAPRIGSNDTIEDSMHRKPLMEMNGIRPDDTRLESTFLKANLHDAITASAQVCRHSEDYRSDIESLYQQLTNLINGKPRILQGNLGDENTDPAAQPLFWISKWVDYSDKYGFGYQLCDEGIGVMFNDTTKLILLPNQINVHFIDKDGKETYMTTTDYCKSLDKKMKLLSYFKRYMIEHLVKAGANNVNIESDQISRMPHLHSWFRTTCAVVMHLTNGSVQLNFSDHMKLILCPRMSAITYMDQEKNFRTYRFSTIVENGVSKDLYQKIRYAQEKLRKMLEKMFT
notes: Polo kinase, Drosophila melanogaster; endogenous protein of ovaries; Polo recovered with Mtrm-3xFLAG was found phosphorylated on T182 at over 80% in all three purifications; source: endogenous, Drosophila ovary extract

Source: paper PMC2100146, “The Inhibition of Polo Kinase by Matrimony Maintains G2 Arrest in the Meiotic Cell Cycle” (PLoS Biology, 2007)
